Experimental data: patent publication US20200292537A1 (THEUNITEDSTATES OF AMERICA ASREPRESENTEDBYTHE SECRETARYOF …, published 2020)
One block for each molecule: values may come before it.

How the values were obtained:
[1] = biological target: recombinant RON protein (extracellular domain, R&D Systems) (human) (UniProt Q04912); assay: full-length MET sandwich immunoassay; RON extracellular domain at 4 to 400 pM, 10-fold over rMET
[2] = biological target: pY1235-MET (human MET phosphorylated at tyrosine 1235) (human) (UniProt P08581); assay: interaction analysis with a BIAlite-Biosensor (Pharmacia), range of protein concentrations
Chain of pY1235-MET (human MET phosphorylated at tyrosine 1235) (human) (P08581 25-1390 limits assumed): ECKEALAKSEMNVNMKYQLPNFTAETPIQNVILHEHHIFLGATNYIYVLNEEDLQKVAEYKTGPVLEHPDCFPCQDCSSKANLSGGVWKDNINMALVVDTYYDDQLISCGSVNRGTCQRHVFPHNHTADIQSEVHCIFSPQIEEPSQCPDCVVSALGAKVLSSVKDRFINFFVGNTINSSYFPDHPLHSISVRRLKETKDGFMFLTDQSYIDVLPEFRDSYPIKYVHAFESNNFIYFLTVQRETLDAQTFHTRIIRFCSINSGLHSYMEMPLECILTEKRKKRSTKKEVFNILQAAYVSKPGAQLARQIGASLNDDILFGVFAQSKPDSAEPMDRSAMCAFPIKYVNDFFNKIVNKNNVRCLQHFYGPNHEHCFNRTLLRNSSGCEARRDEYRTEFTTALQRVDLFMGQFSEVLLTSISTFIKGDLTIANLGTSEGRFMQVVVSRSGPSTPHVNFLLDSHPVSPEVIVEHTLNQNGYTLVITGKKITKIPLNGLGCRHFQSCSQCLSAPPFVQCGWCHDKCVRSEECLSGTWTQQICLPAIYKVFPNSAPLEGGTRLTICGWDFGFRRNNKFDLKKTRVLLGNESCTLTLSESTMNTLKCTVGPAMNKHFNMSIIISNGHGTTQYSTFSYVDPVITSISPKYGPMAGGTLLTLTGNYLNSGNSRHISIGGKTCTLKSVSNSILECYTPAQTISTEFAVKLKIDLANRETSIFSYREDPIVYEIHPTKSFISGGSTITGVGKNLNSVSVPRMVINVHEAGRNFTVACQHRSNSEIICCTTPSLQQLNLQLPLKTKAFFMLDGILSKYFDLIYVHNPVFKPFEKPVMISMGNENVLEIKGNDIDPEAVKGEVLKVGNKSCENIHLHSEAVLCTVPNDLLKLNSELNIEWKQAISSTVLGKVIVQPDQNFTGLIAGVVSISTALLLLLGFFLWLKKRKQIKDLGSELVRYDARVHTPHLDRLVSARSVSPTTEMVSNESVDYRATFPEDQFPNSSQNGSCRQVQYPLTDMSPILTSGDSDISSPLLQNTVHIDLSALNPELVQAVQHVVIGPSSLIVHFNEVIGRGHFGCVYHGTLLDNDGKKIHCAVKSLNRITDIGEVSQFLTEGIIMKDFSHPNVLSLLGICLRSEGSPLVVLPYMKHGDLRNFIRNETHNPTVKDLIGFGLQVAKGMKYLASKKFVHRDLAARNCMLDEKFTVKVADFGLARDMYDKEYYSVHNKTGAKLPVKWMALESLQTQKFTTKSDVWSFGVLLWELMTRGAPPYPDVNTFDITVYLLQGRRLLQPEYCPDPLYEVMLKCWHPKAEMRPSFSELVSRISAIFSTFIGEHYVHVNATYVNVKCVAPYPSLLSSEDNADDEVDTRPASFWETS

[3] = biological target: T1, recombinant RON (cytoplasmic domain, Millipore) (UniProt Q04912 983-1400, limits assumed); assay: Western blot of recombinant RON and preincubation of the antibody with RON
T1 construct: domain: cytoplasmic domain; also called recombinant cytoplasmic RON; cytoplasmic domain of RON
T1 sequence (looked up): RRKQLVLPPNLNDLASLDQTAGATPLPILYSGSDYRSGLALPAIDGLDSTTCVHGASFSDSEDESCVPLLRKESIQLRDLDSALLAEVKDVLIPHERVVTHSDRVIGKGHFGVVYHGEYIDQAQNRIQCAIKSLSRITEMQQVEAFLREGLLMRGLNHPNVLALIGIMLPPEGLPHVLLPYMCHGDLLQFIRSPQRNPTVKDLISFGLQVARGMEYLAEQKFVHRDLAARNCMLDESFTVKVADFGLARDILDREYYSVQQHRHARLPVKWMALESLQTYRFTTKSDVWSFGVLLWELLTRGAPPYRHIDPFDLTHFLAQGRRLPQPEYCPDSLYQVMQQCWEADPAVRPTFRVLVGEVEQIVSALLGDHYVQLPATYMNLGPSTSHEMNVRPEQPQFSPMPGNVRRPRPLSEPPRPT

Chain of recombinant RON protein (extracellular domain, R&D Systems) (human) (Q04912 25-957): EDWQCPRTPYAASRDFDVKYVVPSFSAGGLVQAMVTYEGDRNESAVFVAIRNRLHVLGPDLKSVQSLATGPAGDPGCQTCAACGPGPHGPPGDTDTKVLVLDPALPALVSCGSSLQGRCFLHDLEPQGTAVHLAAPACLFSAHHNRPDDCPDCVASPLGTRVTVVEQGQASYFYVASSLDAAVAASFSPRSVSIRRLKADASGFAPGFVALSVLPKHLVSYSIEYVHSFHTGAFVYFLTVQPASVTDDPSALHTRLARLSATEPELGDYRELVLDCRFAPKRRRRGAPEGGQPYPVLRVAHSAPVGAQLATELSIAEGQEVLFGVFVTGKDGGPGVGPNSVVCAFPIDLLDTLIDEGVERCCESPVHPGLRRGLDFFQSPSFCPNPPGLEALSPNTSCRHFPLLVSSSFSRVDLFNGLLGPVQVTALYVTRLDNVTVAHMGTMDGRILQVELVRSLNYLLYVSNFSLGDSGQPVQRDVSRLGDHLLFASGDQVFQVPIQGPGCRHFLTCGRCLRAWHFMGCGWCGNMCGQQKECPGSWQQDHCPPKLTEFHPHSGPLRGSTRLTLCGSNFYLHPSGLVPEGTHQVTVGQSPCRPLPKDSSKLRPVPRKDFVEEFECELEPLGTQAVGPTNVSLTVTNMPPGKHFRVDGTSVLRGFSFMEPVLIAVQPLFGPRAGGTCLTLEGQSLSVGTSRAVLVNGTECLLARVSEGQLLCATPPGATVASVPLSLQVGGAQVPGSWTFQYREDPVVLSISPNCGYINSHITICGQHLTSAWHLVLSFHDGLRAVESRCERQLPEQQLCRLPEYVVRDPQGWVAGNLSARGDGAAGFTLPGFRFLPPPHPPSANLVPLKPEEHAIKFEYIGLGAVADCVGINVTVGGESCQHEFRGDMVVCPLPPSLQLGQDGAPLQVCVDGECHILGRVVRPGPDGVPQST

cross-reactivity [1]: < 5%
Molecule: antigen affinity purified goat polyclonal anti-human MET extracellular domain antibody (catalog number AF276, R&D Systems)

IC50 [2]: 1.2 nM
binding result [3]: no binding
B1: rabbit monoclonal anti-pY1235-MET antibody, clone 23111 (antibody, V domains shown)
VH: QSVEESGGRLVTPGTPLTLTCTVSGFSLSNYAMGWFRQAPGKGLEWIGIISRSGALWYANWANGRFTISKTSTTVDLKITSPTPEDTATYFCARTNYYDGYGGVDAVLTRFDFWGQGTLVTVSS
VL: DVVMTQTPSSVEAAVGGTVTIKCQASQSIGGGLSWYQQKAGQPPKLLIYGASTLESGVPSRFKGSGSGTEFTLTISDLECADAATYYCQSNYGSDIRDYGHTFGGGTEVVVKG
notes: Rabbit IgG from a hybridoma (Epitomics), later made as a recombinant protein in HEK293 cells; Biotin-conjugated when used as reporter in the sandwich immunoassay; also called antibody #23111; mAb #23111
